A short description of this data set: soluble on expression in E. coli; label from the status in PepcDB or PDB records.
Consider “MESVTRKSVLQLEERPGDSSSSSDEEINTIGNVPLDWYKDLSHIGYTRDGIKLLRRKRVGPLCPVYVKKGFYYLYDEKNDEEIALSRNDLKRLVSIVRLQNPSGATESGFVGEEIVFWTGTPRIEPIRNRNEPKRSFLPSRHEAAQVVKLVRSILRRKRIEELKEHKSEKEDLSIWEETSFEQVGRSHHYLPPPKTPLPGHEESYRPPPEFLLNEEEKSKRKENNELVPETYNFLRHVPLYTSLIREHFERCLELYCAPRMRVRRRKIDPEALLPKLPSPDTLRPFPDSQVASFGPHAGAIRAISLNSNGQWLACACQDGSVSIWEVATGICRIRIDFQEKLKEMLASFESLSQATESEMESMGQYEDLSILHVAWSPKENDFKLAVCIKHFVAVVNVAHILYPDEAQDSQSFGYSVVGEPSSNWKDWKDERGNLGRIAIIEHSRKVQHVHWHQRGDYFVVLTKNAFGSSLVVHQLSRKRTQSPFSKSAKGVITADFHPSKSLFFITTKHHVRIYDLAQAQLVNKLVTGISEISAMSVHPSGNHVLIGSVEGQLVWFDLDLSSRPYKRIRDHTYTVSSIAFHPTLPLFADASDDQTVAVFHATVYEDLLQNPLIVPLKVLKLPHNSKGTGVWSICWHPQLPWLFVSGIDEYVRLYADTS”, for which the “soluble on expression in E. coli” value is recorded as “soluble”.

“MKILLYFEGEKILAKSGIGRALDHQKRALSEVGIEYTLDADCSDYDILHINTYGVNSHRMVRKARKLGKKVIYHAHSTEEDFRNSFIGSNQLAPLVKKYLISLYSKADHLITPTPYSKTLLEGYGIKVPISAISNGIDLSRFYPSEEKEQKFREYFKIDEEKKVIICVGLFFERKGITDFIEVARQLPEYQFIWFGDTPMYSIPKNIRQLVKEDHPENVIFPGYIKGDVIEGAYAAANLFFFPSREETEGIVVLEALASQQQVLVRDIPVYQGWLVANENCYMGHSIEEFKKYIEGLLEGKIPSTREAGYQVAEQRSIKQIGYELKEVYETVLS”: the “soluble on expression in E. coli” value is recorded as “not soluble”.

Take “MGSDKIHHHHHHMAFLDVKGIRKTFPGVVALDGVDLEIELGAVHVLAGENGAGKSTLIRALTGLLPLDGGSIHIDGRDALTDRSAFDLVAYVPQELSLFPHMSVAENLFMPFAKAGFGGRVLPYAEMNRQAGAILERFSIKARPEQKVKSIAVSDQQLLQIARATTNKRLKVLILDEPTSSLTTQEIDRLFRILRQFRDNGTAIVFVSHKMEEIFELGTTVTVLRNGKTVGHRPMAAVSEPELIRLMSGDEVQLDQLFQPACAPGETIVTVDGLCGQGFHDISFALRRGEILGFAGLVGAGRSEVMQSMFGFKKPTGGTVLLKGRPLKLGKPSAAVEAGMLYLSEERRLHGILPVLSLRENIGISVLDQTSRGGVISTARERGVVGEVIASYDIKASSPEKKIMFLSGGNQQKAIIGRAMARKPDVLIFDEPTRGIDIRNKVEIYKIMKRLAEDGVAIILVSSEMAELKRCASRIITMYSGKLSGEFATATTDTHTLVGAIIGSAQSGQPPAGAPSPVADLETGARCHVL”: the “soluble on expression in E. coli” value is given as “not soluble”.

“MGSDKIHHHHHHMQNLSPTQREILLALTDLYNRQKRMIKSKEVADIIGKDEGTVRNIILSLKVLGLVESKPGPNGGYMPTLKAYEIINNPTLTPILDKLNLYKGMIETDIKVENIEIIDITNPSANRVLLKVEGDLRKLKIGDAVRLGPTPYSRLVIEGLILHLDENSKEIVVDVKRMISIPKEKVKNLISKKLIALKPETSLREASMIFYKEAIRGAPVINQDEKVVGILTTADIIKAFFEGNYTAKVSDYMKTNVISINENEDLLDAIRKMIIYNVGRLLVLDSNNKAVGIVTRTDILRSIAGLEGLWTT”: the “soluble on expression in E. coli” value is given as “not soluble”.

Regarding “MMTMWVFGYGSLMWNPGFPVARRELATLSGWSRSFCMSSIHHRGTEEKPGLVLALDAVHNARCRGIAFAVEPGHEARTLDELRERELISSAYLERELEIDLDIGERVCAVTYVIDPHHEQYCGGMPLERQAQIIATAIGGRGPNTEYLYNTAAHLAEIGLGDPDLDWLSARVREITSLEHHHHHH”, the “soluble on expression in E. coli” value is recorded as “soluble”.

Consider “MDTEMLIDKYQLNDSEAAVLRFMDKNRDCLKSLGIREVAKASYVSTTAIINMAKKIGYSGYSELVFAYGNKHSSISFPENFSNEEKDEFIRLLSRYREKRIMVLGSGFSQNIANHFSEMLNLYGFRATANSHLEFLRENVEKDVLIFIVSNSGDTLRLAELVKLAKNHHIDLIAFVGEKKSKIGQLATLTISTETYNPQVVSEYQPNLFFGTALNQFELLLSEALKSIFI”, for which the “soluble on expression in E. coli” value is given as “not soluble”.

Consider “MAHHHHHHMLKFFTEKANHQALKAVLCAVFVQKPLEVTLGSTYSTPYLQLPKSRALLYSCNEAARLIWSTHAAPLPADNSLEGEAEWLEWESTVLTPALTPLYTHRRITGEAEAALKKLDSTIEEHQGTVAVKGAPSSTSFLVDSVLFASLLPALCEGGLLPAAQAARVPHLVKWFQAFQAEHAELIASAFDVLSVQECGDFLRVP”, for which the “soluble on expression in E. coli” value is recorded as “soluble”.

With “MSLDTENVKYRSITTKIELDDLIESLKKAKYISIDTETSSLDTYTAKLIGISISFKEFEGYYIPIEAKGKIYIEKNYIIQKFNNLFESNPKIIGQNYKFDYKILKNNGFNPIPPYFDTMIAAYLIDTNSKVSLDFLAEKYLMHKNIKYEDVIQKNDNFANISLEMATSYSSEDADITFRLFNIFTKKLKEDKLDKLMHEIEMPFNKVIIEMEENGIYLDKEYLKEYGKELGKELEAIENEIIKSIGIDFNLNSPKQMHEILFEKLNLKLPEKMKKDSTDIKVLESLREQHESIENLIKYRQIAKLKSTYTDNLIELINYKTNRLHTSFIQTKTATGRITSINPNLQNIPIKDEKGRKIRKAFKPENGNIFISADYSQIELAILAHLSQDEVLIKAFENNKDIHTETASKLFKIEEKEITPNLRRIAKSINFGIIYRMSDFRLAKELGITKEEAKGFINSYFDSYPKIKEFIINQINFVRNAGYSETILKRRRYIKEINSNNYLERSAAERIAINSIIQGSAADIMKIAMVKVFNEFKSKKMESKILLQVHDEMLIESPIEEENEVKKILKIMMETAYTLNLPLRANIETGKSWGEIHEGHHHHHH”, the “soluble on expression in E. coli” value is “soluble”.

As for “GLPRHSAVMERLRRRIELCRRHHSTCEARYEAVSPERLELERQHTFALHQRCIQAKAKRAGKH”, the “soluble on expression in E. coli” value is listed as “soluble”.

“MKIQCDVCEKAPATLICCADEAALCAKCDVEVHAANKLASKHQRLFLDSLSTKFPPCDICLEKAAFIFCVEDRALLCRDCDEATHAPNTRSANHQRFLATGIRVALSSTSCNQEVEKNHFDPSNQQSLSKPPTQQPAAPSPLWATDEFFSYSDLDCSNKKEQLDLGELDWLAEMGLFGDQPDQEALPVAEVPELSFSHLAHAHSYNRPMKSNVPNKKQRLEYRYDDEEEHFLVPDLG”: the “soluble on expression in E. coli” value is recorded as “not soluble”.

For “MNEILKCIGCGAPLQSENKDAPGYVPEHNMFREDVICRRCFRLKNYNEVQDVGMESEDFLNLLTGLSEKKGIIVNVVDVFDFEGSFINAIQRIVGNKKIILVANKIDLLPKQINHRRVKEWLRKSARKYGLEAEDVVLISANKGWGIDELLQSINHVRNKDDVYIVGTTNVGKSTLINKLIEQSVGEKDVVTTSRFPGTTLDMIDIPLDEKSFMFDTPGIIQSHQMTNYVSENELKIIIPKNEIKQRVYQLNEKQTLFFGGLARIDYVSGGKRPLVCFFSNDLNIHRTKTEKANDLWKSQLGALLSPPQDAQQFNLNDVKAVRLETGKTKRDIMISGLGFITIDAGAKVIVRVPKHVDVILRNSILLEHHHHHH”, the “soluble on expression in E. coli” value was “soluble”.

In the case of “MSLTLKLLAEVAGEKVSRFDNKGDIWYDLISAVHKSIRGSNPDAALYWSARMIAAGCDPLYIARRLLAIASEDVGNADPRAMQVALSAWDCFTRVGPAEGERAIAQAIVYLACAPKSNAVYTAWKQALSDAHNLPEFEVPFHLRNAPTGLMKDLGYGEGYRYAHDEPGAYAAGEQYLPAEIDDRKYYQPTNRGLESKIAEKLDYLANLDANSPQKRYEEGHHHHHH”, the “soluble on expression in E. coli” value was “not soluble”.

For “MGSDKIHHHHHHMNQFKMSLFLPPISPVKDSATGRTVQPPTLTPYKEITLQEVYKLITSSERLKTLTETVRRAAENGDEKAYRMLKQQTLPYVTPCGVFSYRKSDSLTGPSGLIVVDIDHLDSRGEAEKLKRQLFDDRLLRPVLAFTSPGGRGVKAFIPYDLARIPDTRQNTSENIHWAMNYVQAIYDSHPDGEDKKTSRSGKGVDRSGKDLVRACFLSYDEEALIRREI”, the “soluble on expression in E. coli” value was “not soluble”.

On to “MKLKTTLFGNVYQFKDVKEVLAKANELRSGDVLAGVAAASSQERVAAKQVLSEMTVADIRNNPVIAYEDDCVTRLIQDDVNETAYNQIKNWSISELREYVLSDETSVDDIAFTRKGLTSEVVAAVAKICSNADLIYGAKKMPVIKKANTTIGIPGTFSARLQPNDTRDDVQSIAAQIYEGLSFGVGDAVIGVNPVTDDVENLSRVLDTIYGVIDKFNIPTQGCVLAHVTTQIEAIRRGAPGGLIFQSICGSEKGLKEFGVELAMLDEARAVGAEFNRIAGENCLYFETGQGSALSAGANFGADQVTMEARNYGLARHYDPFIVNTVVGFIGPEYLYNDRQIIRAGLEDHFMGKLSGISMGCDCCYTNHADADQNLNENLMILLATAGCNYIMGMPLGDDIMLNYQTTAFHDTATVRQLLNLRPSPEFERWLESMGIMANGRLTKRAGDPSLFF”, for which the “soluble on expression in E. coli” value was “soluble”.

Consider “MKKVFDVWDVETAKRFLEVIRNETIYYPVLIALHTGMRAGEIVSLKWYDVNFEARIISVVKSVRNNRGLKTSDVKTKTSKRSVYINDVLFSELKNLYETIKPKPDDFVCPRLPTGNLTVGYLSKRFKLLVKRYNFPVIRFHDLRHTFATLMLSLGVNTKIVAEILGHSDIKLTADTYSHVLPTMQESAMKEFSKLWKLEHHHHHH”, for which the “soluble on expression in E. coli” value is recorded as “not soluble”.

Regarding “MSLNRPLRIGIVVGELSGDTLGEGFIKAIRARYPDAEFVGIGGPKMNALGCQSLFDMEELAVMGLVEVLGRLPRLLKVKAELVKYFTANPPDVFVGIDAPDFNLRLELSLKQAGIKTVHYVSPSVWAWRQNRIHGIAAATHLVLAFLPFEKAFYDKFNVPCEFIGHTLADSIPLASDKLAARQLLGLDEQRRWLAVLPGSRGSEMKMLAEPFIATCQKLQARYPDLGFVVALVNAKRRAQFEQAWQQVAPELNFVLVDDTARNVITAADAVMLASGTVALECMLLKRPMVVGYRVNAFTAFLAKRLLKTPYVSLPNILAGEELVKELLQDHCTVDNLYHEVSRLLESDNQALMDKFTEMHQWIRKDADQQAAQAVLHLIQKEGHHHHHH”, the “soluble on expression in E. coli” value is “not soluble”.

Turning to “MGCVSSTSRSTGYYSGYESHEEPRAASRPTNSDDRGYETDSEPSSGNLIPNARSVYSESVLWHGTSMQSKIDLRSKGFDAGRKTGGATAGGNANMFMNLSREAQSETRRHHYLSSSQKEAKDFAMFADTSNPTLVRTIGVRNNLSLITDPRTGGTALMTDQSIPRKFVLGSKSSAPGENAKVFRDEMRAAGHNVSTKQAGELLREVQSDS”, the “soluble on expression in E. coli” value is “not soluble”.

As to “MLKGHLHSVESLGTVDGPGLRYILFTQGCLLRCLYCHNPDTWKISEPSREVTVDEMVNEILPYKPYFDASGGGVTVSGGEPLLQMPFLEKLFAELKENGVHTCLDTSAGCANDTKAFQRHFEELQKHTDLILLDIKHIDNDKHIRLTGKPNTHILNFARKLSDMKQPVWIRHVLVPGYSDDKDDLIKLGEFINSLDNVEKFEILPYHQLGVHKWKTLGIAYELEDVEAPDDEAVKAAYRYVNFKGKIPVEL”, the “soluble on expression in E. coli” value is listed as “not soluble”.

On to “MLSVFPLAGMSLASLHYSTHRVDQTQVYMVAAPMADYRVVMTEPAASGQDTYLETTAAFARRTGAVAAMNTNFFRWLNAQSLRSFQDYQKWIMGESNPEGISYRALRQTCLSGRGTIPAGVAGAYIVNGRVVRPYEGGYSGIVNFPAQGGIEFYRGRLPEQPFNVVSGSQQLLDGGRKLPVDGSDRTSPKAILGRRGNEYVFVVSDGRGNGGSPGLSFLQLQDFLLQQGVTEATAMDGGESATLVVEGQVKNHPRDRYCELARWLPAPALTLINLEEEAQETAMAMGRSLRPVGANIGLVPRHRPPAFLSFAFWEFLQQRLLARLRAWRDAVLEHHHHHH”, for which the “soluble on expression in E. coli” value is “not soluble”.

Values taken from the DeepSol protein solubility set.
